Assay results reported in the supplement of paper PMC7125110.
± gives the standard error. For some assays here: Fewer inactive variants are shown than the library holds.

B1: glmS ribozyme (parent)
chain: AUAAAAGCGCCAGAACUACAGAAAUGUAGUUGACGAGGAGGAGGUUUAUCGAAUUUUCGGCGGAUGCCUCCAAA

What was measured:
Settings in all cases: with glucosamine-6-phosphate
glucosamine-6-phosphate [1] = variants of: B1; assay: kcat; higher = faster cleavage; RNA array
Method in brief: (§1)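 Barcoded ribozyme variants, transcribed in situ by E. coli RNA polymerase on sequenced MiSeq chips, were followed via a hybridised Cy3 probe at 37 °C. Glucosamine-6-phosphate ranged from 40 μM to 10 mM in HEPES/KCl/Mg(OAc)2 buffer. kobs came from decay fits to per-tile medians, and kcat and KM from weighted Michaelis–Menten fits.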

glucosamine-6-phosphate [2] = variants of: B1; assay: KM; higher = weaker cofactor use; RNA array
Method in brief: as §1

glucosamine-6-phosphate [3] = variants of: B1; assay: self-cleavage kobs at 640 uM GlcN6P; higher = faster cleavage; RNA array
Method in brief: as §1

glucosamine-6-phosphate [4] = variants of: B1; assay: self-cleavage kobs at 2500 uM GlcN6P; higher = faster cleavage; RNA array
Method in brief: as §1

glucosamine-6-phosphate [5] = variants of: B1; assay: self-cleavage kobs at 10000 uM GlcN6P; higher = faster cleavage; RNA array
Method in brief: as §1

glucosamine-6-phosphate [6] = variants of: B1; assay: self-cleavage kobs at 40 uM GlcN6P; higher = faster cleavage; RNA array
Method in brief: as §1

glucosamine-6-phosphate [7] = variants of: B1; assay: self-cleavage kobs at 160 uM GlcN6P; higher = faster cleavage; RNA array
Method in brief: as §1

Variant	kcat (glucosamine-6-phosphate [1])	KM (glucosamine-6-phosphate [2])	self-cleavage kobs at 640 uM GlcN6P (glucosamine-6-phosphate [3])	self-cleavage kobs at 2500 uM GlcN6P (glucosamine-6-phosphate [4])	self-cleavage kobs at 10000 uM GlcN6P (glucosamine-6-phosphate [5])	self-cleavage kobs at 40 uM GlcN6P (glucosamine-6-phosphate [6])	self-cleavage kobs at 160 uM GlcN6P (glucosamine-6-phosphate [7])
U31G G35U C67G	< 1e-05 s⁻¹	–	–	–	–	–	–
G29A G41U	9.86e-05 ± 5e-06 s⁻¹	1050 ± 200 µM	3.55e-05 ± 1.5e-05 s⁻¹	7.35e-05 ± 1.6e-05 s⁻¹	8.74e-05 ± 1.5e-05 s⁻¹	–	–
G29A A42G	0.00587 ± 0.0021 s⁻¹	1120 ± 510 µM	0.00227 ± 0.00083 s⁻¹	0.00308 ± 0.0011 s⁻¹	0.00757 ± 0.0021 s⁻¹	0.00025 ± 4.4e-05 s⁻¹	0.000587 ± 0.00015 s⁻¹
G44U C67U	0.00551 ± 0.0015 s⁻¹	727 ± 310 µM	0.00206 ± 0.00029 s⁻¹	0.00417 ± 0.00073 s⁻¹	0.00691 ± 0.001 s⁻¹	0.000365 ± 4e-05 s⁻¹	0.000837 ± 0.00016 s⁻¹
A12G G13C	2.64e-05 ± 6.5e-07 s⁻¹	2100 ± 230 µM	–	–	–	< 1e-05 s⁻¹	< 1e-05 s⁻¹
G66A C68G	6.98e-05 ± 9.4e-06 s⁻¹	–	5.08e-05 ± 7.5e-06 s⁻¹	4.73e-05 ± 1e-05 s⁻¹	7.85e-05 ± 7.5e-06 s⁻¹	–	3.51e-05 ± 1.2e-05 s⁻¹
A15G C68U	0.00322 ± 0.00055 s⁻¹	1130 ± 300 µM	0.00112 ± 0.00019 s⁻¹	0.00139 ± 0.00047 s⁻¹	0.00316 ± 0.00032 s⁻¹	0.000128 ± 1.5e-05 s⁻¹	0.00032 ± 7.2e-05 s⁻¹
G66C C71A	0.000163 ± 2.2e-05 s⁻¹	–	–	0.000143 ± 1.5e-05 s⁻¹	0.000132 ± 2.2e-05 s⁻¹	–	–
G13U C68A C70G	2.66e-05 ± 2.1e-06 s⁻¹	139 ± 65 µM	–	–	< 1e-05 s⁻¹	< 1e-05 s⁻¹	–
A6U A39G	0.000267 ± 2.8e-05 s⁻¹	5030 ± 1100 µM	–	9.44e-05 ± 1.8e-05 s⁻¹	0.000175 ± 2.6e-05 s⁻¹	–	–
G40U G41A	0.000118 ± 3.1e-06 s⁻¹	1380 ± 130 µM	3.9e-05 ± 1.1e-05 s⁻¹	7.51e-05 ± 9.8e-06 s⁻¹	0.000104 ± 9.9e-06 s⁻¹	–	–
U54A C70U	0.00432 ± 0.00063 s⁻¹	78.3 ± 20 µM	0.00479 ± 0.0013 s⁻¹	0.00404 ± 0.0014 s⁻¹	–	0.00148 ± 0.00013 s⁻¹	0.00258 ± 0.00056 s⁻¹
G38A U54G	< 1e-05 s⁻¹	–	–	–	–	< 1e-05 s⁻¹	–
C8A C10A G38A C50G	5.64e-05 ± 2.2e-05 s⁻¹	–	9.23e-05 ± 1.7e-05 s⁻¹	–	3.67e-05 ± 1e-05 s⁻¹	3.68e-05 ± 1.4e-05 s⁻¹	8.75e-05 ± 1.8e-05 s⁻¹
U30A U46C	0.000377 ± 6.9e-05 s⁻¹	1730 ± 750 µM	0.000117 ± 3.5e-05 s⁻¹	–	0.000332 ± 7e-05 s⁻¹	–	–
G29U A52U	0.000123 ± 1.2e-05 s⁻¹	4620 ± 1400 µM	–	–	8.41e-05 ± 1e-05 s⁻¹	–	–

Variant	kcat (glucosamine-6-phosphate [1])	KM (glucosamine-6-phosphate [2])	self-cleavage kobs at 640 uM GlcN6P (glucosamine-6-phosphate [3])	self-cleavage kobs at 2500 uM GlcN6P (glucosamine-6-phosphate [4])	self-cleavage kobs at 10000 uM GlcN6P (glucosamine-6-phosphate [5])	self-cleavage kobs at 40 uM GlcN6P (glucosamine-6-phosphate [6])	self-cleavage kobs at 160 uM GlcN6P (glucosamine-6-phosphate [7])
C16U G37U G51C	< 1e-05 s⁻¹	–	< 1e-05 s⁻¹	–	–	< 1e-05 s⁻¹	< 1e-05 s⁻¹
U30A A64G	0.00654 ± 0.00069 s⁻¹	1670 ± 240 µM	0.00193 ± 0.00045 s⁻¹	0.0035 ± 0.0008 s⁻¹	0.00607 ± 0.0014 s⁻¹	0.000149 ± 2.6e-05 s⁻¹	0.000656 ± 0.00022 s⁻¹
A64G U65G	0.00619 ± 0.0017 s⁻¹	4490 ± 1700 µM	0.000845 ± 0.00015 s⁻¹	0.00174 ± 0.00029 s⁻¹	0.00489 ± 0.00066 s⁻¹	5.76e-05 ± 1e-05 s⁻¹	0.000262 ± 6e-05 s⁻¹
U30C G66A	0.000173 ± 3.1e-05 s⁻¹	1860 ± 840 µM	3.92e-05 ± 1e-05 s⁻¹	0.000153 ± 3.4e-05 s⁻¹	0.00014 ± 1.9e-05 s⁻¹	–	–
U30A U55G	0.00534 ± 0.002 s⁻¹	–	0.00138 ± 0.00022 s⁻¹	0.00239 ± 0.00033 s⁻¹	0.00586 ± 0.00095 s⁻¹	0.000142 ± 2.1e-05 s⁻¹	0.000286 ± 5.5e-05 s⁻¹
U47C U57C	6.99e-05 ± 7.5e-06 s⁻¹	–	–	5.62e-05 ± 1.1e-05 s⁻¹	6.24e-05 ± 9.4e-06 s⁻¹	–	–
C67A C70A	5e-05 ± 6.5e-06 s⁻¹	–	4.23e-05 ± 1.8e-05 s⁻¹	6.33e-05 ± 1e-05 s⁻¹	4.28e-05 ± 7.3e-06 s⁻¹	–	–
A39U A42G	0.0208 ± 0.0077 s⁻¹	1440 ± 690 µM	0.0052 ± 0.0011 s⁻¹	0.0216 ± 0.0065 s⁻¹	0.019 ± 0.006 s⁻¹	0.000671 ± 0.00011 s⁻¹	0.00186 ± 0.00055 s⁻¹
A53C C71G	0.00031 ± 7.7e-05 s⁻¹	1290 ± 620 µM	0.000101 ± 1.6e-05 s⁻¹	0.000182 ± 3.4e-05 s⁻¹	0.000335 ± 7.4e-05 s⁻¹	–	4.25e-05 ± 1.8e-05 s⁻¹
A42G A48G	9.11e-05 ± 9e-06 s⁻¹	–	–	–	3.86e-05 ± 1.7e-05 s⁻¹	–	–
A14G G60A	8.13e-05 ± 1.1e-05 s⁻¹	3020 ± 1300 µM	–	4.34e-05 ± 1.9e-05 s⁻¹	6.17e-05 ± 1.2e-05 s⁻¹	–	–
U31A G37C	3.35e-05 ± 2.7e-06 s⁻¹	1840 ± 580 µM	–	–	–	–	–
A15U G40A	0.000675 ± 9.5e-05 s⁻¹	912 ± 230 µM	0.000282 ± 4.7e-05 s⁻¹	0.000515 ± 0.0001 s⁻¹	0.000611 ± 0.0001 s⁻¹	4.43e-05 ± 1.2e-05 s⁻¹	8.75e-05 ± 1.8e-05 s⁻¹
A12C C70U C71U	0.000174 ± 1.1e-05 s⁻¹	1270 ± 200 µM	6.04e-05 ± 1.5e-05 s⁻¹	–	0.000154 ± 2.8e-05 s⁻¹	–	–
C11U U55C	0.00286 ± 0.00063 s⁻¹	6220 ± 1800 µM	0.00029 ± 4.1e-05 s⁻¹	0.000776 ± 0.0001 s⁻¹	0.00181 ± 0.0003 s⁻¹	–	6.7e-05 ± 1.2e-05 s⁻¹
